B1: TPR t1 (parent)
chain: GACCAAUCUGCCCUCAGAGCUCGAGAACAUCUUCGGAUGCAGAGGAGGCAGGCUUCGGUGGCGCGAUAGCGCCAACGUCCUCAACCUCCAAUGCAUCCCACCACAUGAUGAUGCCUGAAGAGCCUUGGUUUUUUG

Variants of: B1
Assay: polymerase ribozyme fitness, log enrichment relative to wild type (log ratio); higher = more active; in vitro selection for triplet polymerase activity
Outline: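 Mutant libraries for each subunit of a heterodimeric triplet polymerase ribozyme were made by PCR and then transcribed. Each library underwent one round of in vitro selection in triplicate: annealing with a biotinylated primer, the partner subunit and triplets, frozen incubation at −7 °C, gel excision of extended constructs, streptavidin-bead capture and RT-PCR. Input and output libraries were Illumina-sequenced, and only genotypes with ≥10 input reads and ≥1 read per output were kept. Fitness is the logarithm, base 2, of genotype enrichment over wild-type enrichment, computed from inverse-variance-weighted replicate averages.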

Row | Variant | polymerase ribozyme fitness (log ratio)
1 | A6C G48C C72U U106A | -1.51
2 | G61U C85G G127C | -2.41
3 | G36U C56U | -1.07
4 | C13U G71U U116G | -1.86
5 | C72U C76U G122A | -1.21
6 | U7G G61A | 0.0552
7 | C49A A90U A111C G113A G122C | -3.8
8 | A43C A46C G60A U87A C101U | -2.45
9 | C31G C53G A90U G113A | -6.88
10 | G45U C56U C70U A75U | -2.3
11 | C15A G36U A121G | 0.928
12 | C28A G60U A74U A83C G113U | -6.48
13 | C40G C89G | -2.85
14 | C4U C12U C13U C124G | 1.84
15 | U7C C12U U106A C115U G127U | -1.03
16 | C40G U55A G63U C124U | 0.229
17 | C62G G110A | -3.33
18 | C11G C70G | -2.08
19 | C4G G47A | -2.34
20 | G71U U78C | -0.468
21 | G57C C89G A90G | -1.31

Row | Variant | polymerase ribozyme fitness (log ratio)
22 | U54G G60A U87A A95G G110C | -6.6
23 | G60C C64G A90G A105C G117C G128A U133C U134G | -4.98
24 | G117C U130C | -2.84
25 | C8G U14A | 0.372
26 | C13U A29U | -1.8
27 | U9A C34G C76G C85G | -6.38
28 | A26G C62U | -1.47
29 | G45U U116C | -1.67
30 | U78A U87A | -0.201
31 | C53A C79A C104A U106A U132C | -3.18
32 | A46U G48C G128U | -3.83
33 | U21C G36U C64U | -0.911
34 | G39A G117C | -4.05
35 | G48C G57U U96C | -0.888
36 | G51U C124U | -2.88
37 | G60A G117A | -1.29
38 | C4U A18C | -3.99
39 | C13A G69U U129A | -1.63
40 | C56A C114A | -1.74
41 | C13U G71A C79U C123U | 1.62
42 | C34A U131A | -1.94

Row | Variant | polymerase ribozyme fitness (log ratio)
43 | C72G U78C G113A | -1.93
44 | U14C A111U | -4.43
45 | A5U U21A | 0.185
46 | C73G C114U | -3.1
47 | C3G U7A C12U C62A G117U | -6.14
48 | A6U C11G U55C | -0.352
49 | G39U C73U C99U | -4.75
50 | U21C A27U | -4.9
51 | A5C A24G G48U G69U G110A C124U U131C | -2.03
52 | G61A A83G | -1.47
53 | U9G C11A U87A | -0.55
54 | A18U C88A | -3.06
55 | A29U C40U C49A U106A | -1.76
56 | G51C G60A U112G G117C | -7.03
57 | G69U C114U | -0.582
58 | C28U G120C | -1.37
59 | C13U A43U U59G C72A C104U | -2.63
60 | A27C A29U C56U U106A G122A C123G | -1.35
61 | A18C G69U C115U | -1.28
62 | C89A C123A | -1.82
63 | G57A G93C U130G | -3.23

Row | Variant | polymerase ribozyme fitness (log ratio)
64 | G10U C56A C73G | -2.43
65 | C22A G61U C115U G128C U131A U134C | -5.61
66 | U32A A50G C85U U87A | -4.8
67 | C8A G44U G52A C72A | -0.705
68 | G47U U54G C104U | -1.47
69 | C4U U32A C89A U106C G110A | -5.64
70 | A37C C70G C79U A121U | 0.503
71 | A16U A37C C73G U112C U133G | -1.75
72 | C8U G71A C98U G117U U130C | -4.47
73 | U14C C34A U87A | -4.01
74 | A27U U112C | -1.46
75 | A43G G128U | -4.43
76 | G44U A46U G71U C114G U132A | -4.18
77 | U14G U125A | -2.09
78 | C89A U92G U116G | -5.83
79 | C15U G25U A26U G51A C99U U112G C114G G135A | -6.73
80 | C3U G47U C53G U96G C104U A118G C124U | -1.09
81 | C89G C115G G128A | -6.15
82 | G19C C72U A91U G113A | -0.96
83 | C89U A95U C115U | -2.59
84 | A75G U96A A105G | -6.14
